B3: catalytic subunit of mitochondrial DNA polymerase gamma (Pol γα) (enzyme, human, UniProt P54098 1-1239, looked up)
chain: MSRLLWRKVAGATVGPGPVPAPGRWVSSSVPASDPSDGQRRRQQQQQQQQQQQQQPQQPQVLSSEGGQLRHNPLDIQMLSRGLHEQIFGQGGEMPGEAAVRRSVEHLQKHGLWGQPAVPLPDVELRLPPLYGDNLDQHFRLLAQKQSLPYLEAANLLLQAQLPPKPPAWAWAEGWTRYGPEGEAVPVAIPEERALVFDVEVCLAEGTCPTLAVAISPSAWYSWCSQRLVEERYSWTSQLSPADLIPLEVPTGASSPTQRDWQEQLVVGHNVSFDRAHIREQYLIQGSRMRFLDTMSMHMAISGLSSFQRSLWIAAKQGKHKVQPPTKQGQKSQRKARRGPAISSWDWLDISSVNSLAEVHRLYVGGPPLEKEPRELFVKGTMKDIRENFQDLMQYCAQDVWATHEVFQQQLPLFLERCPHPVTLAGMLEMGVSYLPVNQNWERYLAEAQGTYEELQREMKKSLMDLANDACQLLSGERYKEDPWLWDLEWDLQEFKQKKAKKVKKEPATASKLPIEGAGAPGDPMDQEDLGPCSEEEEFQQDVMARACLQKLKGTTELLPKRPQHLPGHPGWYRKLCPRLDDPAWTPGPSLLSLQMRVTPKLMALTWDGFPLHYSERHGWGYLVPGRRDNLAKLPTGTTLESAGVVCPYRAIESLYRKHCLEQGKQQLMPQEAGLAEEFLLTDNSAIWQTVEELDYLEVEAEAKMENLRAAVPGQPLALTARGGPKDTQPSYHHGNGPYNDVDIPGCWFFKLPHKDGNSCNVGSPFAKDFLPKMEDGTLQAGPGGASGPRALEINKMISFWRNAHKRISSQMVVWLPRSALPRAVIRHPDYDEEGLYGAILPQVVTAGTITRRAVEPTWLTASNARPDRVGSELKAMVQAPPGYTLVGADVDSQELWIAAVLGDAHFAGMHGCTAFGWMTLQGRKSRGTDLHSKTATTVGISREHAKIFNYGRIYGAGQPFAERLLMQFNHRLTQQEAAEKAQQMYAATKGLRWYRLSDEGEWLVRELNLPVDRTEGGWISLQDLRKVQRETARKSQWKKWEVVAERAWKGGTESEMFNKLESIATSDIPRTPVLGCCISRALEPSAVQEEFMTSRVNWVVQSSAVDYLHLMLVAMKWLFEEFAIDGRFCISIHDEVRYLVREEDRYRAALALQITNLLTRCMFAYKLGLNDLPQSVAFFSAVDIDRCLRKEVTMDCKTPSNPTGMERRYGIPQGEALDIYQIIELTKGSLEKRSQPGP
B4: biotinylated mtSSB variant lacking nine residues of loop 2.3 (Δ67-75), BTN-mtSSB_(l2.3) (natural protein, human, UniProt Q04837 17-148, looked up)
chain: ESETTTSLVLERSLNRVHLLGRVGQDPVLRQVEGKNPVTIFSLATNEMWRGDVSQKTTWHRISVFRPGLRDVAYQYVKKGSRIYLEGKIDYGEYMDKNNVRRQATTIIADNIIFLSDQTKEKE
modifications: biotin (conjugated; site not stated)
notes: also called loop 2.3-deficient mtSSB; source: purified recombinant protein; details in the Supplementary Materials

Legend:
Pol γβ (Homo sapiens) = Pol γβ (Homo sapiens) (UniProt Q9UHN1); settings: cited from earlier work
Sequence of Pol γβ (Homo sapiens) (Q9UHN1 2-485): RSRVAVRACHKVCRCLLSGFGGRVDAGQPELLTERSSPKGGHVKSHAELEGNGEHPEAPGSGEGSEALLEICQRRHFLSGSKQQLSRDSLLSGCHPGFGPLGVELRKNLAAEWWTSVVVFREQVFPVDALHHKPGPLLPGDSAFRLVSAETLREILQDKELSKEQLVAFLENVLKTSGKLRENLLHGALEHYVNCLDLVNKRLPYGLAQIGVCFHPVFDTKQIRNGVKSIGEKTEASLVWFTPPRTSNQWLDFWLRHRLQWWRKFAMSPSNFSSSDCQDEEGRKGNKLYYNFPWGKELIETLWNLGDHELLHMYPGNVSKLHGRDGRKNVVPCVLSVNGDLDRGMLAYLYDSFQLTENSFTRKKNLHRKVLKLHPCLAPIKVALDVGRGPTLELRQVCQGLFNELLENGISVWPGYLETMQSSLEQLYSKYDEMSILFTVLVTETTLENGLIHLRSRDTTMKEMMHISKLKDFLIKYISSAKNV

[1] = molecular target: B3; assay: BLI; BTN-mtSSB or BTN-mtSSB_(l2.3) (600 nM) saturated on streptavidin sensors; Pol γα as analyte at increasing concentrations; Ac buffer: 50 mM Tris-HCl pH 8.0, 10 mM KCl, 4 mM MgCl2, 0.4 mg/ml BSA, 10 mM DTT; 30°C, 1,000 rpm; 1:1 interaction model; settings: both partners purified
mtSSB (wild type) = molecular target: T1, mtSSB (wild type) (UniProt Q04837 17-148); assay: BLI; 4 mM Mg2+; equilibrium responses of mass transfer fit, non-1:1 binding; BLI: 50 mM Tris-HCl pH 8.0, 10 mM KCl, 4 mM MgCl2, 0.4 mg/ml BSA, 10 mM DTT, 30 C; settings: protein: recombinant; chain copies: 4; label: 5'-biotin (immobilized on streptavidin sensor); single strand
T1 sequence: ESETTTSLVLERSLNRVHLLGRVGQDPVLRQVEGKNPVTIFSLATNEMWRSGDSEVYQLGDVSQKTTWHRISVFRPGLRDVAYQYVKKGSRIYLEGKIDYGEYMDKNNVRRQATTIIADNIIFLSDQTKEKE

[2] = molecular target: B4; assay: cell-based or functional assay

## Pol γα (from UniProt P54098)
Pol γβ (Homo sapiens)
  Kd: 20 nM

B1: biotinylated mitochondrial single-stranded DNA-binding protein (BTN-mtSSB), wild type (natural protein, human, UniProt Q04837 17-148, looked up)
chain: ESETTTSLVLERSLNRVHLLGRVGQDPVLRQVEGKNPVTIFSLATNEMWRSGDSEVYQLGDVSQKTTWHRISVFRPGLRDVAYQYVKKGSRIYLEGKIDYGEYMDKNNVRRQATTIIADNIIFLSDQTKEKE
modifications: biotin (conjugated; site not stated)
notes: also called mtSSB4; wild-type mtSSB; source: purified recombinant protein; details in the Supplementary Materials
[1]
  Kd: 48 nM

B2: BTN-ssDNA 40-mer (ssDNA)
DNA: ATTATGAATTAATTTAATAATTTTTTTTTTTTTTTTTTTT
modifications: 5'-biotin
mtSSB (wild type)
  Kd: 2.3 nM

## B3
[2]
  inhibition of primer extension by Pol γα on primer-template (15/59) DNA (mtSSB displacement assay), mtSSB_(l2.3) at 1:1 (~10%) and three-fold molar ratio to DNA template: ~25%

## B4
[1]
  Kd: 26 nM
